Assay results published in patent US20220220215A1 (CRESCENDO BIOLOGICS, published 2022).

B1: TPP-1023: CD137A -6GS-HSA3-6GS-PDA-His (bispecific antibody)
chain: EVQLVESGGGLVQPGGSLRLSCAASGFTLSNYWMNWVRQAPGKGLEWVANINQDGSERYYVDSVKGRFTISRDNAKNSLYLQMNSLRAEDTAVYYCARGGEGYGVDHYGLDVSGQGTTVTVSSGGGGSGGGGSGGGGSGGGGSGGGGSGGGGSEVQLLESGGGLVKPGGSLRLSCAASGFTVSSYTMNWVRQAPGKGLEWVSSISSSGRYIYYADSVKGRFTISRDNAKNSLYLQMNSLRAEDTAVYYCARDPRMVGNPHEFDIWGQGTMVTVSSGGGGSGGGGSGGGGSGGGGSGGGGSGGGGSEVQLVESGGGLVQPGRSLRLSCAASGFTFDDYALHWVRQAPGKDLEWVSGISWNGGSYGYADSVKGRFTISRDNAKNSLYLQMNSLRAEDTALYYCVREKGPGLTGSTADYYGLDAWGQGTMVTVSSAAAHHHHHH
notes: Single-chain VH fusion (CD137 VH, HSA VH, PD-1 VH), His tag
B2: TPP-1010: PD138G7(G109D)-6GS-HSA2-6GS-CD137D-His (bispecific antibody)
chain: EVQLVESGGGVVRPGGSLRLSCAASGFTFDDYAMSWVRQAPGKGLEWVSGITWNGGSTGYADSVKDRFTISRDNAKNSLYLQMNSLRAEDTALYYCVRDKYSYAWSYDDFDIWGQGTMVTVSSGGGGSGGGGSGGGGSGGGGSGGGGSGGGGSEVQLVESGGGLVKPGGSLRLSCAASGFTFSNYNMNWVRQAPGKGLEWVSSISSAGTHIYYADSVKGRFTISRDNAKNSLYLQMNSLRAEDTAVYYCARDPHSTGWYKDFDYWGQGTLVTVSSGGGGSGGGGSGGGGSGGGGSGGGGSGGGGSEVQLVESGGGVVQPGGSLRLSCAASGFTFSNYGMHWVRQAPGKGLEWVAVISNDGNTKTYADSVKGRFTISRDNSKNTLYLQMNSLRAEDTAVYYCAQDETTTVTASYYFDYWGQGTLVTVSSAAAHHHHHH
B3: TPP-1027: CD137A-6GS-HSA2-6GS-PD138G7(G109D)-His (bispecific antibody)
chain: EVQLVESGGGLVQPGGSLRLSCAASGFTLSNYWMNWVRQAPGKGLEWVANINQDGSERYYVDSVKGRFTISRDNAKNSLYLQMNSLRAEDTAVYYCARGGEGYGVDHYGLDVSGQGTTVTVSSGGGGSGGGGSGGGGSGGGGSGGGGSGGGGSEVQLVESGGGLVKPGGSLRLSCAASGFTFSNYNMNWVRQAPGKGLEWVSSISSAGTHIYYADSVKGRFTISRDNAKNSLYLQMNSLRAEDTAVYYCARDPHSTGWYKDFDYWGQGTLVTVSSGGGGSGGGGSGGGGSGGGGSGGGGSGGGGSEVQLVESGGGVVRPGGSLRLSCAASGFTFDDYAMSWVRQAPGKGLEWVSGITWNGGSTGYADSVKDRFTISRDNAKNSLYLQMNSLRAEDTALYYCVRDKYSYAWSYDDFDIWGQGTMVTVSSAAAHHHHHH
B4: TPP-969: PDA-6GS-HSA2-6GS-172E1-13-His (bispecific antibody)
chain: EVQLVESGGGLVQPGRSLRLSCAASGFTFDDYALHWVRQAPGKDLEWVSGISWNGGSYGYADSVKGRFTISRDNAKNSLYLQMNSLRAEDTALYYCVREKGPGLTGSTADYYGLDAWGQGTMVTVSSGGGGSGGGGSGGGGSGGGGSGGGGSGGGGSEVQLVESGGGLVKPGGSLRLSCAASGFTFSNYNMNWVRQAPGKGLEWVSSISSAGTHIYYADSVKGRFTISRDNAKNSLYLQMNSLRAEDTAVYYCARDPHSTGWYKDFDYWGQGTLVTVSSGGGGSGGGGSGGGGSGGGGSGGGGSGGGGSEVQLVESGGGVVQPGGSLRLSCAASGFTFSNYGMHWVRQAPGKGLEWVAVISNDGNTKTYADSVKGRFTISRDNSKNTLYLQMNSLRAEDTAVYYCAQDETTTVTASYYFDYWGQGTLVTVSSAAAHHHHHH
B5: TPP-972: CD137A-6GS-PDA-6GS-HSA2-His (bispecific antibody)
chain: EVQLVESGGGLVQPGGSLRLSCAASGFTLSNYWMNWVRQAPGKGLEWVANINQDGSERYYVDSVKGRFTISRDNAKNSLYLQMNSLRAEDTAVYYCARGGEGYGVDHYGLDVSGQGTTVTVSSGGGGSGGGGSGGGGSGGGGSGGGGSGGGGSEVQLVESGGGLVQPGRSLRLSCAASGFTFDDYALHWVRQAPGKDLEWVSGISWNGGSYGYADSVKGRFTISRDNAKNSLYLQMNSLRAEDTALYYCVREKGPGLTGSTADYYGLDAWGQGTMVTVSSGGGGSGGGGSGGGGSGGGGSGGGGSGGGGSEVQLVESGGGLVKPGGSLRLSCAASGFTFSNYNMNWVRQAPGKGLEWVSSISSAGTHIYYADSVKGRFTISRDNAKNSLYLQMNSLRAEDTAVYYCARDPHSTGWYKDFDYWGQGTLVTVSSAAAHHHHHH
B6: TPP-1028: CD137A-6GS-HSA3-6GS-PD138G7(G109D)-His (bispecific antibody)
chain: EVQLVESGGGLVQPGGSLRLSCAASGFTLSNYWMNWVRQAPGKGLEWVANINQDGSERYYVDSVKGRFTISRDNAKNSLYLQMNSLRAEDTAVYYCARGGEGYGVDHYGLDVSGQGTTVTVSSGGGGSGGGGSGGGGSGGGGSGGGGSGGGGSEVQLLESGGGLVKPGGSLRLSCAASGFTVSSYTMNWVRQAPGKGLEWVSSISSSGRYIYYADSVKGRFTISRDNAKNSLYLQMNSLRAEDTAVYYCARDPRMVGNPHEFDIWGQGTMVTVSSGGGGSGGGGSGGGGSGGGGSGGGGSGGGGSEVQLVESGGGVVRPGGSLRLSCAASGFTFDDYAMSWVRQAPGKGLEWVSGITWNGGSTGYADSVKDRFTISRDNAKNSLYLQMNSLRAEDTALYYCVRDKYSYAWSYDDFDIWGQGTMVTVSSAAAHHHHHH
B7: TPP-973: CD137A-6GS-PDA2-6GS-HSA2-His (bispecific antibody)
chain: EVQLVESGGGLVQPGGSLRLSCAASGFTLSNYWMNWVRQAPGKGLEWVANINQDGSERYYVDSVKGRFTISRDNAKNSLYLQMNSLRAEDTAVYYCARGGEGYGVDHYGLDVSGQGTTVTVSSGGGGSGGGGSGGGGSGGGGSGGGGSGGGGSEVQLVESGGGVVRPGGSLRLSCAASGFTFDDYAMSWVRQAPGKGLEWVSGITWNAGSTGYADSVKGRFTISRDNAKNSLYLQMNSLRAEDTALYYCVRDKYSYAWSYDDFDIWGQGTMVTVSSGGGGSGGGGSGGGGSGGGGSGGGGSGGGGSEVQLVESGGGLVKPGGSLRLSCAASGFTFSNYNMNWVRQAPGKGLEWVSSISSAGTHIYYADSVKGRFTISRDNAKNSLYLQMNSLRAEDTAVYYCARDPHSTGWYKDFDYWGQGTLVTVSSAAAHHHHHH

molecular target: T1, human PD-1 expressed on CHO cells (human, UniProt Q15116 21-288); assay: FMAT/Mirrorball on CHO huPD1 cells
T1 construct: also called CHO huPD1; CHO human PD1 cells
Protocol: Binding of His-tagged molecules to CHO human CD137, CHO parent and CHO human PD1 cells was assessed using Fluorescence Microvolume Assay Technology (FMAT). All reagents were prepared in FMAT assay buffer (pH 7.4) containing PBS, 0.1% Bovine Serum Albumin, 0.05% Sodium Azide. […] Fluorescence emission was then measured on the TTP Mirrorball plate reader in the FL2 (502 nm-537 nm) and FL5 (677-800 nm) channels following excitation at 488 nm and 640 nm. Data was gated on FL5 perimeter and peak intensity and the FL2 median mean fluorescence intensity of the gated data used for determination of VH binding. Monovalent CD137 specific Humabody® VH, and trispecific molecules with a CD137 binding arm bound to CHO CD137 expressing cells. Trispecific Humabody® VH, with a PD1 binding arm bound to PD1 expressing cells.

Row | EC50 | Binder
1 | 0.626 nM | B1

molecular target: human CD137 expressed on cells (Jurkat human CD137 NF-kB luciferase reporter cells; human CD8+ T cells) (human, UniProt Q07011 24-255); assay: cell-based or functional assay

Row | Jurkat-CD137/CHO-PD-1 Reporter Assay EC50 | Binder
2 | 2.29 nM | B2
3 | 0.238 nM | B3
4 | 11.1 nM | B4
5 | 0.321 nM | B5
6 | 0.312 nM | B6
7 | 0.254 nM | B7

molecular target: T2, biotinylated human PD-1-His tagged protein (human, UniProt Q15116 25-170, biotinylated); assay: SPR, Biacore 8K, multi-cycle kinetics; biotinylated antigen captured on streptavidin chip; 1:1 model
T2 construct: not shown: His tag
Protocol: (§1) Multi cycle kinetics assays were then used to evaluate the kinetics and affinity of the interaction. Experiments were performed at […] in HBS-EP+ assay buffer with a flow rate of 30 μl/minute. A streptavidin chip (Streptavidin (SA), Series S, GE Healthcare BR100531) was used to capture the biotinylated human CD137 or human PD-1 reaching a maximum of 75RU or 200RU respectively. A second flow cell without any captured antigen was used as the reference cell. […] The binding kinetics were followed by flowing these over the chip surface. The contact time for the binding steps was 360 or 180 seconds and the dissociation step was 3600 or 1200 seconds for human CD137 and PD1 respectively. After each run, the sensors were regenerated with glycine pH 1.5 to remove the captured Humabody® VH. The data was fitted to a 1:1 binding model after reference subtraction using the Biacore Evaluation software. Example kinetic and binding affinity data obtained is shown Table 19.

Row | Kd | koff | kon | Binder
8 | 5.5 nM | 0.00274 s⁻¹ | 498000 M⁻¹ s⁻¹ | B2
9 | 5.95 nM | 0.00246 s⁻¹ | 413000 M⁻¹ s⁻¹ | B3
10 | 13.4 nM | 0.000915 s⁻¹ | 68500 M⁻¹ s⁻¹ | B4
11 | 11.8 nM | 0.000761 s⁻¹ | 64300 M⁻¹ s⁻¹ | B5
12 | 5.83 nM | 0.00235 s⁻¹ | 403000 M⁻¹ s⁻¹ | B6
13 | 71.6 nM | 0.014 s⁻¹ | 195000 M⁻¹ s⁻¹ | B7

molecular target: T3, biotinylated human CD137-His (human, UniProt Q07011 24-186, biotinylated); assay: as above
T3 construct: not shown: His tag
Protocol: as §1

Row | Kd | koff | kon | Binder
14 | 21.1 nM | 0.00366 s⁻¹ | 173000 M⁻¹ s⁻¹ | B2
15 | 0.023 nM | 2.87e-05 s⁻¹ | 1.25e+06 M⁻¹ s⁻¹ | B3
16 | 20.9 nM | 0.00255 s⁻¹ | 122000 M⁻¹ s⁻¹ | B4
17 | 0.01 nM | 1.55e-05 s⁻¹ | 1.54e+06 M⁻¹ s⁻¹ | B5
18 | 0.0281 nM | 1.9e-05 s⁻¹ | 674000 M⁻¹ s⁻¹ | B6
19 | 0.108 nM | 2.57e-05 s⁻¹ | 237000 M⁻¹ s⁻¹ | B7

molecular target: T4, human CD137 expressed on CHO cells (human, UniProt Q07011 18-255); assay: FMAT/Mirrorball on CHO huCD137 cells
T4 construct: also called CHO huCD137; CHO human CD137 cells
Outline: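 His-tagged VH molecules bound to CHO cells expressing human PD-1 or human CD137, with CHO parent cells as control, in PBS pH 7.4, 0.1% BSA, 0.05% sodium azide. Read by FMAT on Mirrorball (ex 488/640 nm); binding taken as FL2 median fluorescence intensity of FL5-gated events.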

Row | EC50 | Binder
20 | 0.145 nM | B1
